Experimental findings from patent US20230248825 are described below.

Common to all, as to assay: cell_activity
Settings in all cases: primary human T cells; as pair; two GMCSF TALEN constructs used, value not split by construct

Data set [1] has as its system GMCSF_Tal_1 TALEN right monomer (artificial).
Data set [2] deals with GMCSF_Tal_2 TALEN left monomer (artificial).
Data set [3] deals with GMCSF_Tal_2 TALEN right monomer (artificial).
Data set [4] concerns GMCSF_Tal_1 TALEN left monomer (artificial).

“CACTGTGGCCTGCAGCA (double strand) [GMCSF_Tal_1 right half-site]” registered an activity (% reduction in GMCSF secretion) in data set [1] of 90.
Take “TCCTGAACCTGAGTAGA (double strand) [GMCSF_Tal_2 left half-site]”: the activity (% reduction in GMCSF secretion) in data set [2] was determined as 90.
“TGAGATGGTAAGTGAGA (double strand) [GMCSF_Tal_2 right half-site]”: the activity (% reduction in GMCSF secretion) in data set [3] stood at 90.
For “TGTGGCTGCAGAGCCTG (double strand) [GMCSF_Tal_1 left half-site]”, the activity (% reduction in GMCSF secretion) in data set [4] was found to be 90.
